Assay results from patent publication US20100075908A1 (published 2010).
Non-standard residues stand in square brackets, D forms with d. No end group written: not given here.

B1: fibrinogen (ligand)
chain 1: ADSGEGDFLAEGGGVRGPRVVERHQSACKDSDWPFCSDEDWNYKCPSGCRMKGLIDEVNQDFTNRINKLKNSLFEYQKNNKDSHSLTTNIMEILRGDFSSANNRDNTYNRVSEDLRSRIEVLKRKVIEKVQHIQLLQKNVRAQLVDMKRLEVDIDIKIRSCRGSCSRALAREVDLKDYEDQQKQLEQVIAKDLLPSRDRQHLPLIKMKPVPDLVPGNFKSQLQKVPPEWKALTDMPQMRMELERPGGNEITRGGSTSYGTGSETESPRNPSSAGSWNSGSSGPGSTGNRNPGSSGTGGTATWKPGSSGPGSTGSWNSGSSGTGSTGNQNPGSPRPGSTGTWNPGSSERGSAGHWTSESSVSGSTGQWHSESGSFRPDSPGSGNARPNNPDWGTFEEVSGNVSPGTRREYHTEKLVTSKGDKELRTGKEKVTSGSTTTTRRSCSKTVTKTVIGPDGHKEVTKEVVTSEDGSDCPEAMDLGTLSGIGTLDGFRHRHPDEAAFFDTASTGKTFPGFFSPMLGEFVSETESRGSESGIFTNTKESSSHHPGIAEFPSRGKSSSYSKQFTSSTSYNRGDSTFESKSYKMADEAGSEADHEGTHSTKRGHAKSRPV
chain 2: QGVNDNEEGFFSARGHRPLDKKREEAPSLRPAPPPISGGGYRARPAKAAATQKKVERKAPDAGGCLHADPDLGVLCPTGCQLQEALLQQERPIRNSVDELNNNVEAVSQTSSSSFQYMYLLKDLWQKRQKQVKDNENVVNEYSSELEKHQLYIDETVNSNIPTNLRVLRSILENLRSKIQKLESDVSAQMEYCRTPCTVSCNIPVVSGKECEEIIRKGGETSEMYLIQPDSSVKPYRVYCDMNTENGGWTVIQNRQDGSVDFGRKWDPYKQGFGNVATNTDGKNYCGLPGEYWLGNDKISQLTRMGPTELLIEMEDWKGDKVKAHYGGFTVQNEANKYQISVNKYRGTAGNALMDGASQLMGENRTMTIHNGMFFSTYDRDNDGWLTSDPRKQCSKEDGGGWWYNRCHAANPNGRYYWGGQYTWDMAKHGTDDGVVWMNWKGSWYSMRKMSMKIRPFFPQQ
chain 3: YVATRDNCCILDERFGSYCPTTCGIADFLSTYQTKVDKDLQSLEDILHQVENKTSEVKQLIKAIQLTYNPDESSKPNMIDAATLKSRKMLEEIMKYEASILTHDSSIRYLQEIYNSNNQKIVNLKEKVAQLEAQCQEPCKDTVQIHDITGKDCQDIANKGAKQSGLYFIKPLKANQQFLVYCEIDGSGNGWTVFQKRLDGSVDFKKNWIQYKEGFGHLSPTGTTEFWLGNEKIHLISTQSAIPYALRVELEDWNGRTSTADYAMFKVGPEADKYRLTYAYFAGGDAGDAFDGFDFGDDPSDKFFTSHNGMQFSTWDNDNDKFEGNCAEQDGSGWWMNKCHAGHLNGVYYQGGTYSKASTPNGYDNGIIWATWKTRWYSMKKTTMKIIPFNRLTIGEGQQHHLGGAKQAGDV
notes: Soluble plasma fibrinogen flowed over the Biacore chip; also called free fibrinogen

Tests used:
fibrinogen = target: B1; assay: SPR (Biacore), peptide-PEG-biotin on streptavidin chip, fibrinogen in flow, Langmuir analysis
Source text: In this case, peptides known to interfere with fibrinogen-GPIIbIIIa interaction were synthesized, and coupled to the end of a long (3400 MW) PEG molecule whose other end was attached to biotin, as illustrated schematically in FIG. 7. As is known in the art, fibrinogen is a soluble protein in the blood plasma essential for clotting of blood which the enzyme thrombin converts into the insoluble protein fibrin. As shown schematically in FIG. 7, the biotin molecule was used to tether down the peptide-PEG onto a streptavidin-modified Biacore chip. This allowed the GPIIbIIIa mimicking peptide to be hanging off the free end of the PEG.
By allowing free fibrinogen to flow past the peptide, the binding kinetics (i.e., the “on/off rate”) between fibrinogen and the peptides were measured. Then, the fibrinogen was released from the peptide. Using several fibrinogen concentrations, it was possible to measure the KD of the binding interaction between the peptide and the fibrinogen.

[1] = target: von Willebrand factor (vWf) (human) (UniProt P04275); assay: cell-based or functional assay
wild-type GPIIbIIIa = target: T1, wild-type GPIIbIIIa (UniProt P08514 32-1039; P05106 27-788, limits assumed); assay: not stated (comparison value given with the SPR results)
T1 construct: also called wild-type GPIIaIIIb (so in the source); integrin alphaIIbbeta3

GPIb on human platelets [2] = target: T2, GPIb on human platelets (human, UniProt P07359 17-652; P13224 26-206); assay: inhibition of vWf binding to platelets in PRP, flow cytometry (FITC anti-human vWf)
T2 construct: whole, on cells; also called platelet GPIb
Protocol: In order to prepare human platelets for testing, as approved by Canadian Blood Services' Ethics Board, samples of whole blood were drawn from healthy, consenting donors into 2.7-4.0 mL citrated tubes (BD, USA). Platelet rich plasma (PRP) was prepared from whole blood by centrifugation in a Beckman (CS-6R) bench-top centrifuge (r=203.57 mm, Beckman Coulter, USA) 164×g for 15 minutes. PRP from a number of unrelated donors were evaluated on an Adiva 120 Hematology Analyzer (Bayer, Canada) and standardized to a concentration of 300×10⁹ platelets/L in HEPES buffered saline (HBS, 10 mM HEPES, 150 mM NaCl, pH 7.4).
Thereafter the samples were diluted and fixed with 1.0 mL 0.2% formolsaline (0.2% formaldehyde, 150 mM NaCl, pH 7.20) before analysis on a FACS Canto flow cytometer (BD, USA).

GPIb on human platelets [3] = target: T2, GPIb on human platelets; assay: cell-based or functional assay
GPIb on human platelets [4] = target: T2, GPIb on human platelets; assay: conclusion from inhibition of vWf binding to platelets, flow cytometry

| Peptide Concentration at Ic50 (GPIb on human platelets [2]) | Aggregometry % Aggregation on Activation (GPIb on human platelets [3]) | Binder | further results |
| --- | --- | --- | --- |
|  |  | EHIPA (also: coupled to PEG 3400 carrying biotin, coupled end not given here, also called B-peptide 2) [GPIIbIIIa mimotope peptide 2 (EHIPA)] | Kd (fibrinogen): 0.334 µM |
|  |  | APLHK (also: coupled to PEG 3400 carrying biotin, coupled end not given here, also called A-peptide 1) [GPIIbIIIa mimotope peptide 1 (APLHK)] | Kd (fibrinogen): 12.5 µM |
|  |  | [dR][dS][dA][dR][dM][dQ][dV][dC][dW][dN][dA][dF][dK][dN][dR] [D-pep3 (…)] | % agglutination of washed platelets at 10 minutes, ristocetin, aggregometry, 0.1 mg/mL D-pep3 (buffer 66%, BSA 55%) [1]: 69%; % agglutination of washed platelets at 10 minutes, ristocetin, aggregometry, 0.25 mg/mL D-pep3 (buffer 66%, BSA 55%) [1]: 28%; % agglutination of washed platelets at 10 minutes, ristocetin, aggregometry, 0.5 mg/mL D-pep3 (buffer 66%, BSA 55%) [1]: 13% |
|  |  | B1 | Kd (wild-type GPIIbIIIa): 0.103 µM |
| 34 µM | 5% | CGGGGGGRDKLGIYAHS (Linker CGGGGGG followed by the reversed mimotope; L-amino acids; free peptide; also called LR-pep; LR-peptide) [L-CGGGGGGRDKLGIYAHS (L-retro peptide)] | IC50 (GPIb on human platelets [2]): 34 µM |
|  | 5% | CGGGGGGSHAYIGLKDR (other, also: coupled via vinyl sulfone to 500 kDa hyperbranched polyglycerol (HPG), about 100 peptides per HPG) [L100 (HPG conjugate with 100 L-peptides per HPG)] |  |
|  |  | SHAYIGLKDR [SHAYIGLKDR (SEQ ID NO:8)] | binding result (GPIb on human platelets [4]): binds |
| 48 µM | 5% | CGGGGGGSHAYIGLKDR (L-amino acids; free peptide) [L-CGGGGGGSHAYIGLKDR (L-peptide)] | IC50 (GPIb on human platelets [2]): 48 µM |
|  | 78% | [dC]GGGGGG[dR][dD][dK][dL]G[dI][dY][dA][dH][dS] (not fully specified) [D-… (D-retro peptide; SEQ ID NO:12)] |  |
|  | 5% | CGGGGGGSHAYIGLKDR (other, also: coupled through vinyl sulfone to 500 kDa hyperbranched polyglycerol, about 10 peptides per HPG) [L10 (HPG conjugate with 10 L-peptides per HPG)] |  |
| 22 µM | 5% | CGGGGGGRDKLGIYAHS (other, also: coupled via vinyl sulfone to 500 kDa hyperbranched polyglycerol (HPG), about 100 peptides per HPG, Peptide-polymer conjugate) [LR100 (HPG conjugate with 100 L-retro peptides per HPG)] |  |
| 41 µM | 5% | CGGGGGGRDKLGIYAHS (other, also: coupled through vinyl sulfone to 500 kDa hyperbranched polyglycerol, about 10 peptides per HPG, Peptide-polymer conjugate) [LR10 (HPG conjugate with 10 L-retro peptides per HPG)] |  |
